# Laboratory results taken from the supplement of paper PMC10567573.
# B1: ZNF8 (parent)
# chain: KPYTCSVCGKSFSRTTCLFLHLRT
# Variants of: B1
# Experiment: protein stability index of a GFP-peptide fusion (GPS, HEK-293T) (PSI 1-6); higher = more stable
# Conditions: c terminus: a fixed tail appended
# 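Note: lentivirally expressed fusions sorted by FACS into six bins by GFP to DsRed ratio, PSI derived from sequencing read proportions per bin multiplied by bin number.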
row,Variant,protein stability index
1,KVYTCSVCGKSFSRTTCLFLHLRT,2.46
2,KNYTCSVCGKSFSRTTCLFLHLRT,2.14
3,KIYTCSVCGKSFSRTTCLFLHLRT,2.08
4,KHYTCSVCGKSFSRTTCLFLHLRT,2.5
5,KKYTCSVCGKSFSRTTCLFLHLRT,2.05
6,KMYTCSVCGKSFSRTTCLFLHLRT,1.98
7,KGYTCSVCGKSFSRTTCLFLHLRT,3
8,KSYTCSVCGKSFSRTTCLFLHLRT,2.72
9,KYYTCSVCGKSFSRTTCLFLHLRT,2.09
10,KLYTCSVCGKSFSRTTCLFLHLRT,1.74
11,KEYTCSVCGKSFSRTTCLFLHLRT,2.55
12,KCYTCSVCGKSFSRTTCLFLHLRT,1.86
13,KQYTCSVCGKSFSRTTCLFLHLRT,1.87
14,KAYTCSVCGKSFSRTTCLFLHLRT,2.24
15,KRYTCSVCGKSFSRTTCLFLHLRT,1.77
16,KPYTCSDCGKSFSRTTCLFLHLRT,1.71
17,KPYTCSNCGKSFSRTTCLFLHLRT,2.15
18,KPYTCSMCGKSFSRTTCLFLHLRT,2.29
19,KPYTCSHCGKSFSRTTCLFLHLRT,1.44
20,KPYTCSYCGKSFSRTTCLFLHLRT,2.3
21,KPYTCSKCGKSFSRTTCLFLHLRT,1.75
22,KPYTCSCCGKSFSRTTCLFLHLRT,2.82
23,KPYTCSACGKSFSRTTCLFLHLRT,2.12
24,KPYTCSFCGKSFSRTTCLFLHLRT,2.8

row,Variant,protein stability index
1,KPYTCSPCGKSFSRTTCLFLHLRT,2.7
2,KPYTCSRCGKSFSRTTCLFLHLRT,1.68
3,KPYTCSGCGKSFSRTTCLFLHLRT,2.3
4,KPYTCSQCGKSFSRTTCLFLHLRT,3.32
5,KPYTCSICGKSFSRTTCLFLHLRT,2.2
6,KPYTCSWCGKSFSRTTCLFLHLRT,1.85
7,KPYTCSTCGKSFSRTTCLFLHLRT,1.91
8,KPYTCSLCGKSFSRTTCLFLHLRT,2.87
9,KPYTCSECGKSFSRTTCLFLHLRT,2.09
10,KPYTCSSCGKSFSRTTCLFLHLRT,2.04
11,KPYTCSVAGKSFSRTTCLFLHLRT,2.56
12,KPYTCSVDGKSFSRTTCLFLHLRT,3.17
13,KPYTCSVEGKSFSRTTCLFLHLRT,3.46
14,KPYTCSVKGKSFSRTTCLFLHLRT,2.45
15,KPYTCSVLGKSFSRTTCLFLHLRT,2.28
16,KPYTCSVRGKSFSRTTCLFLHLRT,3.12
17,KPYTCSVFGKSFSRTTCLFLHLRT,4.22
18,KPYTCSVMGKSFSRTTCLFLHLRT,2.19
19,KPYTCSVWGKSFSRTTCLFLHLRT,2.5
20,KPYTCSVVGKSFSRTTCLFLHLRT,1.97
21,KPYTCSVIGKSFSRTTCLFLHLRT,2.07
22,KPYTCSVSGKSFSRTTCLFLHLRT,3.95
23,KPYTCSVQGKSFSRTTCLFLHLRT,4.56
